For this data set, the target named is T1, CebR-His6 (Streptomyces scabies 87-22, UniProt C9Z452 1-352).
T1 sequence: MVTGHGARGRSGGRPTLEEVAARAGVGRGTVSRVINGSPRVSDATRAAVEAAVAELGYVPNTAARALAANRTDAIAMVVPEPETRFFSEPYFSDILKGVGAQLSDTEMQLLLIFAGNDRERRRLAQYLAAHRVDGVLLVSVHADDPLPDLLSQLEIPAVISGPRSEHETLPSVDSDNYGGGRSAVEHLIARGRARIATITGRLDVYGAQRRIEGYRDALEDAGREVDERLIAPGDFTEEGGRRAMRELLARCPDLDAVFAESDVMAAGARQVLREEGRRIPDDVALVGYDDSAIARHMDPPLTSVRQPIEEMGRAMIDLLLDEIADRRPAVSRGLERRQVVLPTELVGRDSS
Kind of data set: EMSA.

B1: cbstxtB probe (dsDNA)
DNA 1: CTCCCCCAGGGGGAGCGCTCCCACTGCGCTGTA
DNA 2: TACAGCGCAGTGGGAGCGCTCCCCCTGGGGGAG
For B1, the binding result is “binds”.

B2: cbstxtR-A probe (dsDNA)
DNA 1: TGTCAATAAGCGGGAGCGCTCCCACAGCGCTCTC
DNA 2: GAGAGCGCTGTGGGAGCGCTCCCGCTTATTGACA
For the molecule B2, the binding result is “binds”.

The values above are taken from article PMC4358012.
